Test results reported in the supplement of paper PMC5998384.

Key:
HeLa Kyoto [1] = experiment: solubility change mitosis vs G1/S (difference of NP-40 vs SDS log2 ratios) (log2 ratio difference); higher = more soluble in mitosis
HeLa Kyoto [2] = experiment: solubility in G1/S (NP-40 vs SDS abundance) (log2 ratio); higher = more soluble; conditions: cell cycle stage: G1/S
HeLa Kyoto [3] = experiment: melting temperature (median over replicates), in situ; higher = more thermally stable
HeLa Kyoto [4] = experiment: thermal stability score vs G1/S (z-score of summed log2 fold changes over temperatures); higher = more thermally stable than in G1/S
[5] = cell cycle stage: early G1 (4.5 h after nocodazole release)
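Wherever melting temperature (median over replicates), in situ is given: HeLa Kyoto cells synchronized by double thymidine or nocodazole block, proteins quantified by TMT10plex mass spectrometry, three independent biological replicates.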
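Wherever solubility change mitosis vs G1/S (difference of NP-40 vs SDS log2 ratios) is given: synchronized HeLa Kyoto cells (double thymidine block for G1/S, nocodazole release for mitosis), protein amounts in NP-40 versus SDS lysates quantified by mass spectrometry, three biological replicates.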
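Wherever solubility in G1/S (NP-40 vs SDS abundance) is given: HeLa Kyoto cells arrested at G1/S by double thymidine block, proteins quantified by TMT10plex mass spectrometry in mild NP-40 versus SDS extracts, three biological replicates.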
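Wherever thermal stability score vs G1/S (z-score of summed log2 fold changes over temperatures) is given: synchronized HeLa Kyoto cells, proteins quantified by TMT10plex mass spectrometry, three biological replicates, mitosis taken 0.5 h after nocodazole release, G1/S directly after double thymidine block.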

Sequence | solubility change mitosis (log2) (HeLa Kyoto [1]) | solubility in G1/S (log2) (HeLa Kyoto [2]) | melting temperature (HeLa Kyoto [3]; cell cycle stage: G1/S) [°C] | melting temperature (HeLa Kyoto [3]; cell cycle stage: mitosis) [°C] | thermal stability score (HeLa Kyoto [4]; [5]) | thermal stability score (HeLa Kyoto [4]; cell cycle stage: mitosis)
MFSRAGVAGLSAWTLQPQWIQVRNMATLKDITRRLKSIKNIQKITKSMKMVAAAKYARAERELKPARIYGLGSLALYEKADIKGPEDKKKHLLIGVSSDRGLCGAIHSSIAKQMKSEVATLTAAGKEVMLVGIGDKIRGILYRTHSDQFLVAFKEVGRKPPTFGDASVIALELLNSGYEFDEGSIIFNKFRSVISYKTEEKPIFSLNTVASADSMSIYDDIDADVLQNYQEYNLANIIYYSLKESTTSEQSARMTAMDNASKNASEMIDKLTLTFNRTRQAVITKELIEIISGAAALD [ATP5C1] | -0.0222 | 0.283 | 58 | 56.5 | -0.727 | -0.47
MFVARSIAADHKDLIHDVSFDFHGRRMATCSSDQSVKVWDKSESGDWHCTASWKTHSGSVWRVTWAHPEFGQVLASCSFDRTAAVWEEIVGESNDKLRGQSHWVKRTTLVDSRTSVTDVKFAPKHMGLMLATCSADGIVRIYEAPDVMNLSQWSLQHEISCKLSCSCISWNPSSSRAHSPMIAVGSDDSSPNAMAKVQIFEYNENTRKYAKAETLMTVTDPVHDIAFAPNLGRSFHILAIATKDVRIFTLKPVRKELTSSGGPTKFEIHIVAQFDNHNSQVWRVSWNITGTVLASSGDDGCVRLWKANYMDNWKCTGILKGNGSPVNGSSQQGTSNPSLGSTIPSLQNSLNGSSAGRKHS [SEH1L] | 0.295 | -0.79 | 54.8 | 51.6 | -3.19 | -4.18
MFVQEEKIFAGKVLRLHICASDGAEWLEEATEDTSVEKLKERCLKHCAHGSLEDPKSITHHKLIHAASERVLSDARTILEENIQDQDVLLLIKKRAPSPLPKMADVSAEEKKKQDQKAPDKEAILRATANLPSYNMDRAAVQTNMRDFQTELRKILVSLIEVAQKLLALNPDAVELFKKANAMLDEDEDERVDEAALRQLTEMGFPENRATKALQLNHMSVPQAMEWLIEHAEDPTIDTPLPGQAPPEAEGATAAASEAAAGASATDEEARDELTEIFKKIRRKREFRADARAVISLMEMGFDEKEVIDALRVNNNQQNAACEWLLGDRKPSPEELDKGIDPDSPLFQAILDNPVVQLGLTNPKTLLAFEDMLENPLNSTQWMNDPETGPVMLQISRIFQTLNRT [UBAC1] | -0.0991 | 0.313 | 50.9 | 50.6 | 1.16 | 0.844
MGAAHSASEEVRELEGKTGFSSDQIEQLHRRFKQLSGDQPTIRKENFNNVPDLELNPIRSKIVRAFFDNRNLRKGPSGLADEINFEDFLTIMSYFRPIDTTMDEEQVELSRKEKLRFLFHMYDSDSDGRITLEEYRNVVEELLSGNPHIEKESARSIADGAMMEAASVCMGQMEPDQVYEGITFEDFLKIWQGIDIETKMHVRFLNMETMALCH [TESC] | 0.0705 | 0.101 | 51.1 | 51.7 | 0.145 | 1.31
MGAFLDKPKMEKHNAQGQGNGLRYGLSSMQGWRVEMEDAHTAVIGLPSGLESWSFFAVYDGHAGSQVAKYCCEHLLDHITNNQDFKGSAGAPSVENVKNGIRTGFLEIDEHMRVMSEKKHGADRSGSTAVGVLISPQHTYFINCGDSRGLLCRNRKVHFFTQDHKPSNPLEKERIQNAGGSVMIQRVNGSLAVSRALGDFDYKCVHGKGPTEQLVSPEPEVHDIERSEEDDQFIILACDGIWDVMGNEELCDFVRSRLEVTDDLEKVCNEVVDTCLYKGSRDNMSVILICFPNAPKVSPEAVKKEAELDKYLECRVEEIIKKQGEGVPDLVHVMRTLASENIPSLPPGGELASKRNVIEAVYNRLNPYKNDDTDSTSTDDMW [PPM1A] | -0.159 | 0.243 | 51.9 | 52 | 0.1 | -0.132
